Publication PMC10945777 (Proceedings of the National Academy of Sciences of the …, 2024)

What was measured:
[1] = molecular target: NrtBCD (nitrate site in NrtB dimer) (Nostoc sp. PCC 7120 = FACHB-418, UniProt A0ACD6B946); assay: colorimetric ATPase assay; format: biochemical; conditions: 2 mM MgCl2, 50 mM Tris-HCl pH 8.0, 150 mM NaCl, 0.02% GDN, 37 °C
[2] = molecular target: NrtB of Anabaena sp. PCC 7120 (transmembrane subunit, as it stands in NrtBCD) (Anabaena sp. PCC 7120); assay: cryo-EM structure
[3] = molecular target: signaling protein PII of Anabaena sp. PCC 7120 (Anabaena sp. PCC 7120); assay: cryo-EM structure

## O=[N+]([O-])O [nitrate]
[1]
  fold stimulation of ATPase activity at 8 mM: ~ 2.5 fold

## NrtB of Anabaena sp. PCC 7120 (transmembrane subunit, as it stands in NrtBCD) (natural protein)
[2]
  stoichiometry N: 2

## signaling protein PII of Anabaena sp. PCC 7120 (natural protein)
[3]
  stoichiometry N: 3
